Assay: soluble on expression in E. coli; label from the status in PepcDB or PDB records

Row | Sequence | soluble on expression in E. coli
1 | MGSDKIHHHHHHMTRPPDLLADVLDGIDALLVFSPSGSYYDRVDDVEGVDVVVVATENAVGAETFVELPLAFDDVREQIRFGIEGALSEGVVADGDELGCVAPFLSEEVDMVTRTRANAGTQSSVYELFASTRAEPGVIRDVFDVAIELGRKGQKGKPVGALFVVGDAGKVMTKSRPLSYNPFEKSHVHVGDPIVNVMLKEFSRLDGAFVISDSGKIVSSYRYLEPGAEGTDIPKGLGARHMAAGAITRDTNAVAIVLSESDGLVRAFRNGELVLELDPEDN | not soluble
2 | MSLSHSEAGQAASVRRVLAVIPARGGSKGVPAKNLLPVGGVPLVARAVRECRATRLVTDVVVSTDDHAIAAAAREAGAEVVLRPAAIAGDTATSEAAVLHAMDTHEALHGAAVDVVLLVQCTSPFIVREDVDGVVHAIVGKGADTALTVAPFHGFVWRDADDAPGALGAERAAVEGGTDTLVTGTATSGGYGINHDKSFRPRRQDRPQDLLETGAVYGMDATGFREARHRFFGRTELVRTDPARVLEIDDPHDLARARALAPLFDANRPGALPTAEDIDAVVLDFDGTQTDDRVLIDSDGREFVSVHRGDGLGIAALRKSGLTMLILSTEQNPVVAARARKLKIPVLHGIDRKDLALKQWCEEQGIAPERVLYVGNDVNDLPCFALVGWPVAVASAHDVVRGAARAVTTVPGGDGAIREIASWILGPSLDSLDKEGHHHHHH | soluble
3 | GAQVSSQKVGAHENSNRAYGGSTINYTTINYYKDSASNAASKQDYSQDPSKFTEPLKDVLIKTAPALN | soluble
4 | MITCGQVSSSLAPCIPYVRGGGAVPPACCNGIRNVNNLARTTPDRQAACNCLKQLSASVPGVNPNNAAALPGKCGVSIPYKISASTNCATVK | soluble
5 | MCASFSPTLDSRSRQLLRTLISCYIQNGEPIGSKTLAQQAGLDISPATIRNILADLEELGLLNSPHTSAGRVPTAHGYRMFVDSLVQMQPPSEDDIRRLRVEMTGGGTQTLLGSASEILSAMTHFVGVVSAPRREQFVFRHIDFVPLDARQIMAILIFADNEVQNRVIEPRRVYEPGELERVSNYLNAHFIGRTLADIRTTVLCELRKAKDEMEQLLAHSLDLASQMLVPNDSEDIVVTGQTRLMALQDLSDMDRLRELFEIFASKREILQLLERTIDAPGVRIFIGEETGMVSMEDISLVTAPYAAHGQVLGVLGVIGPKRMAYDRVIPLVQVVAQVLGTALEPPTMP | not soluble
6 | MGSDKIHHHHHHMAKSSLGQDSDSTAAVAVLKRAVELDAESRYQQALVCYQEGIDMLLQVLKGTKESSKRCVLRTKISGYMDRAENIKKYLDQEKEDGKYHKQIKIEENATGFSYESLFREYLHETVTEVWIEDPYIRQTHQLYNFLRFCEMLIKKPCKVRTIHLLTSGYEGLGNTQQSSGLEEIKQSLGSHGVVLEINYSSSIHDREIRFNNGWMIKIGRGLDYFKKPQGRFSLGYYDLDLRPCHETTVDIFHNKHTKKI | not soluble
7 | MGSDKIHHHHHHMKRPLQTWLTESWLAFSRLLTFHILERRLFEHSGRIPYEPQPGNLLYVAASVLPYHTSGYTTRTHEVVCALNKAGARVHVLTRPGYPWDRKDRLCDPVSEETTVGDMCYRHAQAPANNRPVLQYALQAARVVAESAVRHRVAVIHAASNHVNALPALLAARQLGIPFQYEMRGLWELTRISRQPGYEDSQAYKQGLQLEGLVARHADRLFVISEQLGKYVQTNWDIDAGRMALLPNCVDPERFLIADPQQIESNTIGYAGSLMGYEGLDTLIDAVDILVRSGSSVRVVIIGDGEARPQLETRVQRLGLSERIYFSGKMPPDAAREKLARCALVCIPRKPFKVCEIVPPIKLVEALAMGKPVIVPDLPVFRDELGDDPAGWFFRSGDAADLAHVIEAALGNEEKLREMSDQARDYVLAKRCWHRFVDKMAKPYDS | not soluble
8 | MLPERVLEILREMKRERIKGASWLAKKGAEAFLTLAEELDESLLEDAIMELREEVVKVNPSMASLYNLARFIPVTNRRDILKSRALEFLRRMEEAKRELASIGAQLIDDGDVIITHSFSSTVLEIIRTAKERKKRFKVILTESSPDYEGLHLARELEFSGIEFEVITDAQMGLFCREASIAIVGADMITKDGYVVNKAGTYLLALACHENAIPFYVAAETYKFHPTLKSGDVMLMERDLIRGNVRIRNVLFDVTPWKYVRGIITELGIVIPPRDIQ | soluble
9 | TTPAPESNRKYIIAVTACPTGIAHTYMAEDALKKKAKEMGVDIKVETNGSEGIKNRLTAEDIARADGVIVAADKKVEMNRFDGKKLVNRPVSDGIRKTEELINLAISGEAPTFHGSDSAA | not soluble
10 | AKEDNIEMQGTVLETLPNTMFRVELENGHVVTAHISGKMRKNYIRILTGDKVTVELTPYDLSKGRIVFRSR | soluble
11 | MISITSAEVGMKINEWHRHIQKFNVTDAEMLKAEIERDIEVMEEDQDLLIYYQLMAFRHKIMLEYTLPSDENRMELSEYLNKIEGHKKKLDNMRAYYYNFFRGMYEFRNGEYTRAITYYKKAERKIPTISDKIEKAEFYFKLSEVYYHMKMTHISMHYAELSYNIYKKHELYSVRRIQCHFVIAGNYDDLENHEKALPHLQEALKGAELLKSKNTHIYATAFFNLGNCYHKMDNLNKAARYIEQALVQYRKINSDVLPQAYHDLALIYFKQGKKGQAMDCFRKGIRSAVDFKDELFMNLFEALDVLYIRNGDTPKLLNIFSRLENGKGYPYLEELALLGGNLFDYNGKIEDSIICFKK | not soluble
12 | MEVLKLQLRQWQAEKLGEAINALKHGKTLLLNAKPGLGKTVFVEVLGMQLKKKVLIFTRTHSQLDSIYKNAKLLGLKTGFLIGKSASCIYAQGDEEPDEINCSKCRLKDKIKTIEDKEPSKLIEEFKDAVDYCPYYSLRANLKDKDVIAMTYPYLFQKPIRNSVFCNKDDCLKLEDYLIVIDEAHNLLEADKWFTRKISRKMLERALKEIEIVERLNRIDAKKVKDYINLLIDYMSKLIKDGRCHELSLMPLPDRETNGELIVVTRAYLNIDEGPVKKSSLKSLLKFVEMKGDLYNCNGSLVKVPSDVNQLIEDALNVKTFKVLMSGTLPESLTLTNSYKIVVNESYGRGEYYYCPNVTSELRKRNSNIPIYSILLKRIYENSSKSVLVFFPSYEMLESVRIHLSGIPVIEENKKTRHEEVLELMKTGKYLVMLVMRAKESEGVEFREKENLFESLVLAGLPYPNVSDDMVRKRIERLSKLTGKDEDSIIHDLTAIVIKQTIGRAFRDPNDYVKIYLCDSRYREYFADLGISEKEIKLFA | soluble
13 | MSNIAKTSEALQARIRELCGDQLREVGTHPGHWDDSAVRHIVRNPPAAYVVWLGHVPGEHPHVVQARWAVYVVANVLDGQRQNDPGIYQLVEKLSAGLHRCRIAPSGTFDVVLRQAAHLSCYRCKTCGPIRKAAWAWRFTACILKRRNRAITGEMMAQTKITLLAPHKHAGKQYQAGEVLSVDEQSAKFILNMGIGKPAEPVRKNPKLNTEDKQNAK | not soluble
14 | MSLYNDSLFNAFARSFEARSQHDMSMAEYLESCRSDPMKYANAAERLLAAIGEPQTIDTAKDPRLGRIFLNRTIRTYPAFAGFYGMEETIERIVGFFRHAAQGLEERKQILYLLGPVGGGKSSLAERLKSLMEVHPIYVLKAGDELSPVFESPLSLFDPDQLGPMLEEKYGIPRRRLTGLMSPWCYKRLEAFGGDISQFRVAKIQPSRLRQIAIAKTEPGDENNQDISSLVGKVDIRKLETYAQNDPDAYSYSGGLNRANQGILEFVEMFKAPIKMLHPLLTATQEGNYIGTENIGAIPFTGIILAHSNEAEWASFKANKNNEAFIDRICVIKVPYVLRVTEEQKIYEKLIQGSELASAPCAPSTLETMARFSVMSRLRKHENSTVFGKMRVYDGESLKESDPKARSVQEYRDAAGVDEGMDGVSTRFAFKILAATFNHDPQEVAADAVHLMYALEQSIKREQLPEEVEKRYLEFIKADLAPRYAEFIGNEIQKAYLESYSDYGQNLFDRYVDYADAWIEDQDFKDPDTGQLLDRELLNQELTKIEKPAGIANPKDFRNEVVKFSLRSRAQNGGKNPTWTSYEKIRDVIEKRIFSQVEDLLPVISFGSKKDGETEKKHGEFVARMVERGYTERQVRRLVEWYMRVKQAGEGHHHHHH | soluble
15 | MHHHHHHSSGRENLYFQGTYNISVVGLSGTEKEKGQCGIGKSCLCNRFVRPSADEFHLDHTSVLSTSDFGGRVVNNDHFLYWGEVSRSLEDCVECKMHIVEQTEFIDDQTFQPHRSTALQPYIKRAAATKLASAEKLMYFCTDQLGLEQDFEQKQMPDGKLLVDGFLLGIDVSRGMNRNFDDQLKFVSNLYNQLAKTKKPIVVVLTKCDEGVERYIRDAHTFALSKKNLQVVETSARSNVNVDLAFSTLVQLIDK | soluble
